Experimental data reported in patent US20100297136A1 (NOTTINGHAM TRENT UNIVERSITY, published 2010).

Legend:
[1] = target: T1, HLA-A2.1 MHC class I on the surface of T2 cells; assay: T2 MHC class I stabilisation, flow cytometry with anti HLA-A2.1 mAb, peptide at 100 ug (printed '100 lg'), n = 3
T1 construct: whole, on cells; MHC class I molecule stabilised on T2 cells by added peptide
Protocol: (§1) 2. CAPABILITY OF T21-DERIVED PEPTIDES TO STABILISE MHC CLASS I ON THE SURFACE OF T2 CELLS. Each of the peptides were then screened in a standard T2 assay to determine their ability to stabilise MHC class I molecules on the surface of T2 cells. In brief, T2 cells were cultured routinely in suspension and when required, resuspended to 4×10⁶ cells/ml. 40 μl of the cell suspension was added to round bottom 96 well plates to give a final cell number of 1.6×10⁵ cells/well. Test peptide was added to the wells in triplicate at concentrations of 100, 10, 1 μg. As a control, T2 cells were also treated with equivalent concentrations of DMSO. Following overnight incubation, cells were harvested into FACS tubes, washed and labelled with anti HLA-A2.1 monoclonal antibody (primary antibody) and FITC conjugated goat IgG F(ab′)₂ anti mouse Ig (secondary antibody). Cells were then analysed using a FACScan spectrofluorometer. (See Table 5 and FIG. 6).
(§2) TABLE 5 Mean T2 binding ratios calculated for the four T21-derived peptides. Mean fluorescence (T2 binding ratio) was calculated by dividing the fluorescence observed for the test peptide by the fluorescence observed for the control (DMSO).

[2] = target: T1, HLA-A2.1 MHC class I on the surface of …; assay: T2 MHC class I stabilisation, flow cytometry with anti HLA-A2.1 mAb, peptide at 1 ug (printed '1 lg'), n = 3
Protocol: as §1, §2

[3] = target: T1, HLA-A2.1 MHC class I on the surface of …; assay: T2 MHC class I stabilisation, flow cytometry with anti HLA-A2.1 mAb, peptide at 10 ug (printed '10 lg'), n = 3
Protocol: as §1, §2

Binder	Mean T2 binding ratio [1]	Mean T2 binding ratio [2]	Mean T2 binding ratio [3]
VIAKFQNKL (Synthetic peptide) [T21:607 peptide]	0.933 ratio to DMSO control	0.951 ratio to DMSO control	0.967 ratio to DMSO control
LIIPSLERL (Synthetic peptide) [T21:656 peptide]	0.921 ratio to DMSO control	0.955 ratio to DMSO control	0.928 ratio to DMSO control

More lines, now with the values ahead:

Mean T2 binding ratio [1]	Mean T2 binding ratio [2]	Mean T2 binding ratio [3]	Binder
0.893 ratio to DMSO control	0.918 ratio to DMSO control	0.942 ratio to DMSO control	SLERLVNAI (Synthetic peptide) [T21:660 peptide]
2.86 ratio to DMSO control	0.955 ratio to DMSO control	1.11 ratio to DMSO control	YLIHLLQEL (Synthetic peptide) [T21:765 peptide]
